In US20160122431A1 (MAYO FOUNDATION FOR MEDICAL EDUCATION AND RESEARCH, published 2016):

Legend:
murine B7-DC = target: T1, murine B7-DC (murine, UniProt Q9WUL5 20-247); assay: cell-based or functional assay
T1 sequence (looked up): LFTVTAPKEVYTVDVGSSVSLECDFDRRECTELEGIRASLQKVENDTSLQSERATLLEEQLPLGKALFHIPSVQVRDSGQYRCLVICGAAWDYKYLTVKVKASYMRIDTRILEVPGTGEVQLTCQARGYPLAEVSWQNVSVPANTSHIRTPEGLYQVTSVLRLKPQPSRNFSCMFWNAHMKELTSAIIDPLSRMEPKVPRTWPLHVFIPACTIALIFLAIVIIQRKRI

human B7-DC = target: T2, human B7-DC (human, UniProt Q9BQ51 20-273); assay: flow cytometry on Ltk cells transiently transfected with human B7-DC
T2 construct: whole, on cells; also called hB7.DC; human B7-DC orthologue
T2 sequence (looked up): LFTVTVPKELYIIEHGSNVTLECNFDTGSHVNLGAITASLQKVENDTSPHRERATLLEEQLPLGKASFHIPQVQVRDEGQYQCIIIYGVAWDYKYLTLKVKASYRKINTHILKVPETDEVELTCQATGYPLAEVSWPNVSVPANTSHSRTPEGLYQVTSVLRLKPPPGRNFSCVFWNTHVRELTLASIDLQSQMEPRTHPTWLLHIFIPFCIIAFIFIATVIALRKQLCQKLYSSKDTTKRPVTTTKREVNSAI
From the text: Furthermore, the level of sHIgM12 binding to L-cells was positively correlated with the amount of B7-DC plasmid used in the transfection.

B1: sHIgM12 (human monoclonal IgM antibody, pentameric) (antibody)
heavy: QVQLQESGPGLLKPSETLSLTCTVSGGSVSLYYWSWIRQSPGKEPEWIGYIYSSGSTDYNPSLRSRVTISLDTSNNRFSLNLRSVTAADTAVYWCARSASIRGWFDPWGQGTLVTVSSGSASAPTLFPLVSCENSPSDTSSVAVGCLAQDFLPDSITFSWKYKNNSDISSTRGFPSVLRGGKYAATSQVLLPSKDVMQGTDEHVVCKVQHPNGNKEKNVPLPVIAELPPKVSVFVPPRDGFFGNPRKSKLICQATGFSPRQIQVSWLREGKQVGSGVTTDQVQAEAKESGPTTYKVTSTLTIKESDWLSQSMFTCRVDHRGLTFQQNASSMCVPDQDTAIRVFAIPPSFASIFLTKSTKLTCLVTDLTTYDSVTISWTRQNGEAVKTHTNISESHPNATFSAVGEASICEDDWNSGERFTCTVTHTDLPSPLKQTISRPKGVALHRPDVYLLPPAREQLNLRESATITCLVTGFSPADVFVQWMQRGQPLSPEKYVTSAPMPEPQAPGRYFAHSILTVSEEEWNTGETYTCVVAHEALPNRVTERTVDKSTGKPTLYNVSLVMSDTAGTCY
light: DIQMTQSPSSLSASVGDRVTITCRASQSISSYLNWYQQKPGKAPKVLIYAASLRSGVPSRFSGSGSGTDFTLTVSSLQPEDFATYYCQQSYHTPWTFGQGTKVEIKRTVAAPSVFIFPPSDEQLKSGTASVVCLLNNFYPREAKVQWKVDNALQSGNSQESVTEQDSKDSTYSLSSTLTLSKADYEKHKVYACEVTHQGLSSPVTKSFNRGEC
notes: IgM/kappa purified from human patient serum; A J chain is not mentioned; also called B7-DC cross-linking antibody; sHIgM12 antibody
In the case of B1, the “GFP+, CD11c+ DC recovered from draining lymph nodes after adoptive transfer” value (murine B7-DC) is reported as 5 fold, the “IL-12 p70 release by DC (ELISA), against LPS” value (murine B7-DC) is reported as ~3 fold and the “ability of lymph node DC to induce an antigen-specific T cell response” value (murine B7-DC) is reported as 10 fold. B1: binds (human B7-DC).
